This is an account of results in paper PMC4391858.

Series [1] is described as follows: cycloheximide chase, Western blot, CHO cells. To be noted: glycan lost; control: wild type DLL3.
Series [2] is described as follows: confocal immunocytochemistry of coexpressed DLL1, CHO cells. To be noted: glycan lost; control: wild type DLL3.

B1: Delta-like 3 (DLL3): DLL3-S286A,T403V (protein)
parent chain: MVSLQVSPLSQTLILAFLLPQALPAGVFELQIHSFGPGPGLGTPRSPCNARGPCRLFFRVCLKPGVSQEATESLCALGAALSTSVPVYTEHPGESAAALPLPDGLVRVPFRDAWPGTFSLVIETWREQLGEHAGGPAWNLLARVVGRRRLAAGGPWARDVQRTGTWELHFSYRARCEPPAVGAACARLCRSRSAPSRCGPGLRPCTPFPDECEAPSVCRPGCSPEHGYCEEPDECRCLEGWTGPLCTVPVSTSSCLNSRVPGPASTGCLLPGPGPCDGNPCANGGSCSETSGSFECACPRGFYGLRCEVSGVTCADGPCFNGGLCVGGEDPDSAYVCHCPPGFQGSNCEKRVDRCSLQPCQNGGLCLDLGHALRCRCRAGFAGPRCEHDLDDCAGRACANGGTCVEGGGSRRCSCALGFGGRDCRERADPCASRPCAHGGRCYAHFSGLVCACAPGYMGVRCEFAVRPDGADAVPAAPRGLRQADPQRFLLPPALGLLVAAGLAGAALLVIHVRRRGPGQDTGTRLLSGTREPSVHTLPDALNNLRLQDGAGDGPSSSADWNHPEDGDSRSIYVIPAPSIYAREDWLIQVLF
For B1, in series [1], the degradation_or_half_life result is listed as “no change”. Moreover, the “localisation_or_trafficking, other: cells with DLL1 relocalised outside Golgi” value in series [2] was “decreases, the intracellular DLL1 staining did not change obviously (10 out of 14 cells”.
